Data as given in patent US20230002798A1, “PROCESS FOR THE PREPARATION OF A FERMENTABLE SUGAR COMPOSITION AND THE FERMENTATION THEREOF” (WeissBioTech GmbH, priority 2019, published 2023).

Format: biochemical
Details: pH 5
Experimental: For activity measurements, the enzyme Agl1 was incubated with 10 mM and 50 mM panose, isomaltose, isomaltotriose, maltose, maltotriose, and trehalose for 10 min at 37° C. in Britton-Robertson buffer, pH 5. The enzyme Gth was incubated with 15 mM panose, 10 and 50 mM isomaltose, and 10, 50 and 100 mM maltotriose and trehalose for 10 min at 37° C. in Britton-Robertson buffer, pH 5. The reaction was stopped with 60 μL of 1 M NaOH, followed by addition of 60 μL of 1 M HCL. The amount of produced glucose was quantified using a standardized glucose assay kit (D-Glucose HK Assay Kit, Megazyme u.c. IRE). Glucose concentration was determined as specified in the instructions. Units are defined as the amount of enzyme required to produce one μmol of glucose per minute.

B1: Agl1: oligo-1,6-glucosidase of Bifidobacterium breve UCC2003, amino acid sequence SEQ ID NO:1, expressed in Bacillus subtilis (protein)
chain: MMTTFNRAIIPDAIRTNGATPNPWWSNAVVYQIYPRSFQDTNGDGFGDLKGITSRLDYLADLGVDVLWLSPVYKSPQDDNGYDISDYQDIDPLFGTLDDMDELLAEAHKRGLKVVMDLVVNHTSDEHAWFEASKNKDDEHADWYWWRPARPGTTPGEPGSEPNQWGSYFGGSAWEYCPERGEYYLHQFSKKQPDLNWENPAVRRAVYDMMNWWLDRGIDGFRMDVITLISKRTDANGRLPGEYGSELDDLPVGEEGYSNPNPFCADGPRQDEFLKEMRREVFAGREGFLTVGEAPGITPVRNEHITNPANGELDMLFLFDHVDFDCDGVKWKPLPLDLPGFKRIMAGYQTAVENVGWASLFTGNHDQPRVVSRWGDDSSEESRVRSAKALGLMLHMHRGTPYVYQGEELGMTNAHFTSLDQYRDLESLNAYRQRVEEAKVQSPESMLAGIAARGRDNSRTPMQWDGSAYAGFTAPDAATEPWISVNPNHAEINAAGEFDDPDSVYAFYKKLIALRHNSSIVAAGEWQLIDADDAHVYAFTRTLGNERLLVVVNLSGRTVDLPRESTELIAGGVTEPDIILSTYDAPHTVVSLANRELDPWEAAAVQL
modifications: Bifidobacterium breve UCC2003; ACM89182.1 alpha-glucosidase 1
- substrate degradation (activity on trehalose): breaks down trehalose
